Measured values reported in patent US20110118447A1.
Numbering of substitutions follows the chain as printed. Names may count otherwise. Each block holds one binder with its values, some of them ahead of it.

Biological target: binding partner of C5A (XPA23)
Experiment: Biacore K-off

B8: C5A (XPA23) VL R31I (antibody, V domains shown)
VH: EVQLLESGGGLVQPGGSLRLSCAASGFTFSKYFMFWVRQAPGKGLEWVSVISPSGGMTRYADSVKGRFTISRDNSKNTLYLQMNSLRAEDTAVYYCARVGYGGNSDYWGQGTLVTVSS
VL: DIQMTQSPSSVSASVGDRLTIICRASQDINIWLAWYQQTPGNAPKLLIHSATSLQSGVPSRFSGSGSGTDFTLTINSLQPEDFATYYCQQADSFPLTFGGGTKVEIK
fold difference in affinity vs original: 0.68 fold

B9: C5A (XPA23) VL A51W (antibody, V domains shown)
VH: B8 VH
VL: B8 VL with I31R, A51W
fold difference in affinity vs original: 0.24 fold

B10: C5A (XPA23) VL H49F (antibody, V domains shown)
VH: B8 VH
VL: B8 VL with I31R, H49F
fold difference in affinity vs original: 0.5 fold

B11: C5A (XPA23) VL H49L (antibody, V domains shown)
VH: B8 VH
VL: B8 VL with I31R, H49L
fold difference in affinity vs original: 0.07 fold

B13: C5A (XPA23) VL R31V (antibody, V domains shown)
VH: B8 VH
VL: B8 VL with I31V
fold difference in affinity vs original: 0.44 fold

B14: C5A (XPA23) VL N30L (antibody, V domains shown)
VH: B8 VH
VL: B8 VL with N30L, I31R
fold difference in affinity vs original: 0.68 fold

B18: C5A (XPA23) VL N30F (antibody, V domains shown)
VH: B8 VH
VL: B8 VL with N30F, I31R
fold difference in affinity vs original: 1.59 fold

B20: C5A (XPA23) VL S50G (antibody, V domains shown)
VH: B8 VH
VL: B8 VL with I31R, S50G
fold difference in affinity vs original: 0.14 fold

B21: C5A (XPA23) VL H49P (antibody, V domains shown)
VH: B8 VH
VL: B8 VL with I31R, H49P
fold difference in affinity vs original: 0.86 fold

B23: C5A (XPA23) VL N30I (antibody, V domains shown)
VH: B8 VH
VL: B8 VL with N30I, I31R
fold difference in affinity vs original: 0.65 fold

B25: C5A (XPA23) VL H49W (antibody, V domains shown)
VH: B8 VH
VL: B8 VL with I31R, H49W
fold difference in affinity vs original: 0.21 fold

B26: C5A (XPA23) VL T52A (antibody, V domains shown)
VH: B8 VH
VL: B8 VL with I31R, T52A
fold difference in affinity vs original: 0.66 fold

B28: C5A (XPA23) VL Q27F (antibody, V domains shown)
VH: B8 VH
VL: B8 VL with Q27F, I31R
fold difference in affinity vs original: 2.96 fold

B29: C5A (XPA23) VL D28A (antibody, V domains shown)
VH: B8 VH
VL: B8 VL with D28A, I31R
fold difference in affinity vs original: 0.88 fold

B31: C5A (XPA23) VL Q27A (antibody, V domains shown)
VH: B8 VH
VL: B8 VL with Q27A, I31R
fold difference in affinity vs original: 1.47 fold

B32: C5A (XPA23) VL S50I (antibody, V domains shown)
VH: B8 VH
VL: B8 VL with I31R, S50I
fold difference in affinity vs original: 0.25 fold

B33: C5A (XPA23) VL T52I (antibody, V domains shown)
VH: B8 VH
VL: B8 VL with I31R, T52I
fold difference in affinity vs original: 0.8 fold

B34: C5A (XPA23) VL T52V (antibody, V domains shown)
VH: B8 VH
VL: B8 VL with I31R, T52V
fold difference in affinity vs original: 0.82 fold

B36: C5A (XPA23) VL N30W (antibody, V domains shown)
VH: B8 VH
VL: B8 VL with N30W, I31R
fold difference in affinity vs original: 1.06 fold

B37: C5A (XPA23) VL R31A (antibody, V domains shown)
VH: B8 VH
VL: B8 VL with I31A
fold difference in affinity vs original: 8.48 fold

B38: C5A (XPA23) VL A51L (antibody, V domains shown)
VH: B8 VH
VL: B8 VL with I31R, A51L
fold difference in affinity vs original: 0.16 fold

B39: C5A (XPA23) VL S50W (antibody, V domains shown)
VH: B8 VH
VL: B8 VL with I31R, S50W
fold difference in affinity vs original: 0.02 fold

B40: C5A (XPA23) VL A51P (antibody, V domains shown)
VH: B8 VH
VL: B8 VL with I31R, A51P
fold difference in affinity vs original: 0.13 fold

Other lines, results leading:

fold difference in affinity vs original: 0.21 fold
B1: C5A (XPA23) VL L96Q (antibody, V domains shown)
VH: B8 VH
VL: B8 VL with I31R, L96Q

fold difference in affinity vs original: 0.71 fold
B2: C5A (XPA23) VL N30G (antibody, V domains shown)
VH: B8 VH
VL: B8 VL with N30G, I31R

fold difference in affinity vs original: 0.43 fold
B3: C5A (XPA23) VL R31W (antibody, V domains shown)
VH: B8 VH
VL: B8 VL with I31W

fold difference in affinity vs original: 0.83 fold
B4: C5A (XPA23) VL Q27L (antibody, V domains shown)
VH: B8 VH
VL: B8 VL with Q27L, I31R

fold difference in affinity vs original: 3.84 fold
B5: C5A (XPA23) VL A51G (antibody, V domains shown)
VH: B8 VH
VL: B8 VL with I31R, A51G

fold difference in affinity vs original: 0.89 fold
B6: C5A (XPA23) VL N30V (antibody, V domains shown)
VH: B8 VH
VL: B8 VL with N30V, I31R

fold difference in affinity vs original: 0.82 fold
B7: C5A (XPA23) VL Q27I (antibody, V domains shown)
VH: B8 VH
VL: B8 VL with Q27I, I31R

fold difference in affinity vs original: 0.23 fold
B12: C5A (XPA23) VL H49A (antibody, V domains shown)
VH: B8 VH
VL: B8 VL with I31R, H49A

fold difference in affinity vs original: 1.43 fold
B15: C5A (XPA23) VL D28F (antibody, V domains shown)
VH: B8 VH
VL: B8 VL with D28F, I31R

fold difference in affinity vs original: 0.69 fold
B16: C5A (XPA23) VL N30P (antibody, V domains shown)
VH: B8 VH
VL: B8 VL with N30P, I31R

fold difference in affinity vs original: 0.92 fold
B17: C5A (XPA23) VL R31G (antibody, V domains shown)
VH: B8 VH
VL: B8 VL with I31G

fold difference in affinity vs original: 0.13 fold
B19: C5A (XPA23) VL S50A (antibody, V domains shown)
VH: B8 VH
VL: B8 VL with I31R, S50A

fold difference in affinity vs original: 0.61 fold
B22: C5A (XPA23) VL N30A (antibody, V domains shown)
VH: B8 VH
VL: B8 VL with N30A, I31R

fold difference in affinity vs original: 0.49 fold
B24: C5A (XPA23) VL S50L (antibody, V domains shown)
VH: B8 VH
VL: B8 VL with I31R, S50L

fold difference in affinity vs original: 9.64 fold
B27: C5A (XPA23) VL D28L (antibody, V domains shown)
VH: B8 VH
VL: B8 VL with D28L, I31R

fold difference in affinity vs original: 0.31 fold
B30: C5A (XPA23) VL A51V (antibody, V domains shown)
VH: B8 VH
VL: B8 VL with I31R, A51V

fold difference in affinity vs original: 3.81 fold
B35: C5A (XPA23) VL D28W (antibody, V domains shown)
VH: B8 VH
VL: B8 VL with D28W, I31R

fold difference in affinity vs original: 1.21 fold
B41: C5A (XPA23) VL D28G (antibody, V domains shown)
VH: B8 VH
VL: B8 VL with D28G, I31R

fold difference in affinity vs original: 1.17 fold
B42: C5A (XPA23) VL D28P (antibody, V domains shown)
VH: B8 VH
VL: B8 VL with D28P, I31R

fold difference in affinity vs original: 0.51 fold
B43: C5A (XPA23) VL R31L (antibody, V domains shown)
VH: B8 VH
VL: B8 VL with I31L

fold difference in affinity vs original: 0.92 fold
B44: C5A (XPA23) VL R31F (antibody, V domains shown)
VH: B8 VH
VL: B8 VL with I31F

fold difference in affinity vs original: 0.85 fold
B45: C5A (XPA23) VL D28V (antibody, V domains shown)
VH: B8 VH
VL: B8 VL with D28V, I31R

fold difference in affinity vs original: 0.21 fold
B46: C5A (XPA23) VL S50V (antibody, V domains shown)
VH: B8 VH
VL: B8 VL with I31R, S50V
